Experimental findings from patent US20230000916A1 (University of Pennsylvania, published 2023) are described below.

This assay addresses T1, F12Q CAR.
T1 construct: also called F12Qz CAR; F12Q chimeric receptor
Description: flow cytometry; K562.64.86.F12Qz cells stained with soluble biotinylated CD3 epsilon, then streptavidin-PE.

B1: Biotinylated Human CD3 epsilon Protein (AcroBiosystems Cat #CDE-H82E1) (other, UniProt P07766 23-126, looked up)
chain: DGNEEMGGITQTPYKVSISGTTVILTCPQYPGSEILWQHNDKNIGGDEDDKNIGSDEDHLSLKEFSELEQSGYYVCYPRGSKPEDANFYLYLRARVCENCMEMD
modifications: biotinylated
notes: Bought reagent; also called soluble CD3-epsilon protein; soluble, biotinylated CD3ε protein
As for B1, the binding result was “binds”.
